This data set in a line: amyloid nucleation score (Sup35N fusion, yeast selection) (log enrichment); library NNK3; higher = more nucleation; inactive = no reads after selection. The gist of the method: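 Random libraries were run with three technical output replicates. In each, psi-negative yeast expressing Sup35N fused to peptides of 20 random codons were induced 24 hours with 100 μM copper sulfate and grown 7 days at 30°C on medium lacking adenine and uracil, and input and output plasmid inserts were Illumina-sequenced. The nucleation score is the DiMSum log enrichment of output over input reads, centred on the mode score of non-aggregating sequences, and sequences under 100 input reads were excluded.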

In the supplement of paper PMC12042874 one finds amyloid nucleation score data, which are given here for 99 substances.

± gives the uncertainty stated by the source.

With AHRLHSLINSLTLSNRSMM, the amyloid nucleation score result was “inactive”. For TMHGAQFCD the value was “inactive”. On to FKKSLYVLSDFSVLYSMCSW, for which the amyloid nucleation score entry was “inactive”. For NLWYAFMSFVVNDGHIRLGR the value was 1.1 ± 0.11; for FVKLKYINFGCLRGCESGCL, 1.42 ± 0.13; for AICAVPRTKMMIQRTSSNRS, “inactive”. Turning to YIVST, the amyloid nucleation score result is “inactive”. For SVMMVMEEFFQWGLKVNMRT the value was -0.078 ± 0.54. Take SLCDMREWSALVFITHMSMV: the amyloid nucleation score entry is “inactive”. For the substance VALLDSHGKWFMLGQFLNLK, the amyloid nucleation score result was “inactive”. For CVWTSVLDVRYLYWCNVDVR the value was “inactive”; for NLGLRGPLLAMKCMIACYVQ, “inactive”. For CIQLVVT the value was “inactive”; for KPWGPGIIGSGSRIMTDVVE, “inactive”; for PYKTWTINVLLWNLSCTFLN, 1.49 ± 0.096. In turn, NNCEVNLCSLELPWKTKLMM had an amyloid nucleation score of 0.264 ± 0.85. With SNLCGFCRSHVIKVMLLLSA, the amyloid nucleation score result is “inactive”.

NTVNWSFFVMVLSFSSRETV: the amyloid nucleation score result is “inactive”. For FMGTGHSFGSQNPVSLILKS the value was “inactive”; for HKWSAAIEIGSVKDNRIKLL, “inactive”; for SYRVCMCSTLVVVVSSRGLS, 0.823 ± 0.17.

Turning to GSGMGL, the amyloid nucleation score entry was “inactive”. On to YAIVGSRVVRLRSKNRRNLS, for which the amyloid nucleation score result was “inactive”. With MWVPYSAFRMDQEFGFYGIT, the amyloid nucleation score worked out at 0.057 ± 0.24. For RACML the value was “inactive”; for FQNHVSASKVVWHRFNRRKD, “inactive”; for RELVNSNALGNFLWETVCFS, “inactive”.

Substance VSMRSTYTFG showed an amyloid nucleation score of 0.597 ± 0.51. For KTSAVRLATNIVLTFHSILY the value was “inactive”; for CMLAQRRVTPRRYRLVSSTI, “inactive”; for SMCPLYFINHAIAVDAMKFF, “inactive”. As for IKSLFVGGFSLNVTPTHKGR, the amyloid nucleation score came out at 1.57 ± 0.13. For LCAYNSTWSACNWGFIHNSL the value was 2.58 ± 0.051; for MVGRGEQVM, “inactive”; for GHRRVVSLCYTYMRWI, “inactive”. NCTDLLRMLYGMRRGINSNC: the amyloid nucleation score entry is “inactive”. For YFGYRLLAAERSSERVICFK the value was -0.352 ± 0.75; for DLFCCCYTLS, 1.03 ± 0.2.

As to LRAKFLILWSRFMQGMQGVT, the amyloid nucleation score result was “inactive”. SRYTLNAFYMWG returned an amyloid nucleation score of 2.02 ± 0.1.

Regarding HSITNITCSFDLAFLRMHVL, the amyloid nucleation score came to 0.871 ± 0.11. The substance SSYCGHCNYEPRSSWFILFF returned an amyloid nucleation score of 1.61 ± 0.072. With EICWKLIGRMRC, the amyloid nucleation score entry is “inactive”. For DIVSLVNAFMISTIYTVTRK the value was “inactive”; for NVYLKLTA, “inactive”.

Consider QAFDFTHHPFHDRSWNGHWS, for which the amyloid nucleation score result was “inactive”. For YFLYMCALTHRWFWFKFFER the value was “inactive”; for WDWWN, “inactive”; for MVVSVQIVFVQVTDMVYHVN, 0.393 ± 0.24. For IDVKSLSWKMYRRLGTIPYT the value was -0.317 ± 0.93; for SSFAGVFNFRDGTQSQILYV, “inactive”. For WSILL the value was “inactive”; for LGFESCVHRGKIKAVVMTST, “inactive”; for CLWKG, “inactive”.

Consider KLVVNSKPYMNYVSVDEIIM, for which the amyloid nucleation score result was “inactive”. With GDEVHGFIVVQSREAFSRKL, the amyloid nucleation score result was “inactive”.

Turning to RSPTVL, the amyloid nucleation score result is “inactive”. For LRFVHDVLDFGASMSLRRK the value was 0.606 ± 0.1; for FISDRGGLVRMNYPPRHW, “inactive”; for GIAIFTMDCGV, “inactive”. LSSFHHRQVLHRAVAKPFTA had an amyloid nucleation score of 0.245 ± 0.75.

For YLIGLRCWCSL, the amyloid nucleation score result was “inactive”. For the substance SFLGCFHGDY, the amyloid nucleation score result was “inactive”. With SCLRHPSTSSQNKSCLPDIP, the amyloid nucleation score entry is “inactive”.

EATWMSLRYV: the amyloid nucleation score result was “inactive”. With AKDMEGGQHNDGSDRRNERW, the amyloid nucleation score result is “inactive”. For VVMWQRRLRYGPKERNNGKV the value was -0.067 ± 0.4; for SHLSYYTFKWSSEATRAVPM, 1.82 ± 0.11; for TEYCIYFLEV, “inactive”. Consider VSLKVIDKNFNFHVMYGCID, for which the amyloid nucleation score entry is “inactive”. Regarding FSDCQLESGCCHRSRDLIGL, the amyloid nucleation score result is “inactive”. Turning to IDNMMYVV, the amyloid nucleation score result was “inactive”. For IYGHCCIISAWVWGNESLVL the value was “inactive”; for ILKSTELWKRESQFSQRVGA, 4.44 ± 0.057. For RFNSWRSCIWLM, the amyloid nucleation score entry was “inactive”.

As for LREPRGGSWRRLDCFKCRLG, the amyloid nucleation score entry is “inactive”. For QGNSRRSLINLHSLNKNILH the value was “inactive”. MSLLASLLIMYIPIRYNVE: the amyloid nucleation score entry is “inactive”. For RRIPITFIACNCTRTCWQMI the value was 0.394 ± 0.23; for MAKVLHNWFFDRYRFVMFIG, “inactive”; for KTHCCC, “inactive”.

Take PPCMYTMYCEYNVLQSSSKY: the amyloid nucleation score was found to be 1.64 ± 0.082. For QYVCVRS the value was “inactive”; for GIELAVFYCHYIRVGSDVY, “inactive”. As to NSFFKGGWMHPG, the amyloid nucleation score result is “inactive”. As for GPFQLA, the amyloid nucleation score entry was “inactive”.

For NCSYIDQR, the amyloid nucleation score stood at 0.483 ± 0.14. As to TCSYKSC, the amyloid nucleation score result is “inactive”. As to VWGIRFLLVWNRGHAGYSLN, the amyloid nucleation score result was “inactive”. For MLAVRMVDTPSSCQRIKPDN the value was “inactive”; for GNMCDRTYLRMMLFHCRMPS, “inactive”. HPGFTWY: the amyloid nucleation score result is “inactive”. For LINVELYLPGLRRIWAPSSG the value was 0.221 ± 0.54; for ESMLIS, “inactive”; for NDHLLL, “inactive”. For the substance VVWASV, the amyloid nucleation score entry was “inactive”. Turning to ADLRIRSSSCRPSADINFG, the amyloid nucleation score result is “inactive”.

GNKMVLVW: the amyloid nucleation score entry was “inactive”.

As for LCLSTIV, the amyloid nucleation score result is “inactive”.
